The values below come from the DeepSol protein solubility set.

This data set can be described thus: soluble on expression in E. coli; label from the status in PepcDB or PDB records.
Take “MSPQYDAIIVGGGHNGLTCGAYLARAGVKVLVVERQPMVGGAAVTGEIAPGYRSSLASYYQGLLQPKVILDLELQKYGFEVIPAAPTVFALEGGRTFTLWDDPEKFAAEIAKFSNVDGAAYAGYRAHMLKIAPHMKQLLWEVPVDPASGKIRDLKRLAGFVWRFRKVGPQFYDIYNLLTMSAWDYLSRWFTSDEVKLVLGFFAGGGGANSSLKTPGSAYMLARGIVRDGGTAAGPAGFMKGGMGAISEAIRRSGEAHGMEVRTACPVERILVENGRAVGVRLEGGEEIRSKIVIANATARTTFTKLLDPAELPEEFNRDIRNIRCESTVFRVNLALSALPEAPVFGQTNPQGSIVPQMTVAPNVAYMERAWHQAQGGEIAEAPFLIVKVPSMVDPTLAPEGHHIMNVFGGHAPYTLARGDWDSRREELWGRVLAVLKTQFPDIESRILHRQIMTPLDLERIFDLPNGHVHHGEISADQMFFRRPSPQFADYRSPVDRLYQASASVHPGGGVTGVPGHNAAKVILEDRRKWSLEHHHHHH”: the “soluble on expression in E. coli” value is given as “soluble”.

Consider “MGSDKIHHHHHHMKKAIVLCAGKGTRLRPLTFTTAKHLIPIANKPILFYSLENIARAGIEEVGIVVSPHNAEEFKSIVGTGENFGLRISYIIQEEPKGLAHAVWVSREFLGDEDFMMYLGDNLILEDLGKFVKDFENSDYAASILLSPVKDPTRFGVAVMEGDRVIKVVEKPKTPPSNLAIVGLYLFRNKIFEGIKNIKPSWRGELEITDAIEYLIEKGEKVRGYIVYGWWKDTGKPEDLLEANRKILMETTEELLGEMDDKSSIQGPVRIGKASKIVNSVIRGPAVIGENCFIKNSYVGPYSSIGNRVILEDCEVENSIVMDECSITGVEKRIDSSILGKGVSVKGSQKRPASLNLILGNMSRVEL”, for which the “soluble on expression in E. coli” value is given as “not soluble”.

With “MGHHHHHHSHMWSSREIEDLGLTFAIAIDKGKETNTEKELKEEGGSYPKKDNITLTYQFVNEKAAGAGTSGGGGSGQGAQKAYINISETGDSLQQIGSEVALRRDREVFSPHLKVVVMSEDVLHTFPIDEMLDQFFRDNEIRLSCLVLSAKGEARDALQLKENGEIPAFRLIGLGENEHKVSRILPPMTLAKLIGKLHSGSSFLLQNVVAANGAVKYSGAAVINGKSKKMIGTLNEYETEGITWIRGEGKGGVVKSHDKKSQQTLAYDINKIKSRIQPIVKGKDISFHVDIESEGDLVENWNTKEALDTQFIDRLETTIENEVKKIVGQVLKKIQHDYKADVAGFDESFRLTYPHLWKRVKNNWDDTFSKADITYSVNVTITHFGTVKTQ”, the “soluble on expression in E. coli” value is given as “soluble”.

As for “MSLEEWEKHMQNFIPDMLVTFPLAPRSDEYFYEHIEANDGAVHLRGGFFVGGDEGSASVDFSITDPDGDIIYKKSKSEGLFYFTAKKKGTYSFIVSNHQWLESRMVTFAIGRGNETALMPKHVQTAGEMADTLQNQLRDIQLLLLQQEKENGSSSSVSEEKADATASAASAGGLTDREMKQVIYGACRKVDARNATEIPSCRGIPLTEVHRHWVIEEKERIARMGGTIENGRVNGSLEVTRSFGDISLKRYGVSCVPTVKKFTLDPALDEFVLMGCDGFWNCWTASEALNLASEAWEKEIRSSKVHSRPVDPQNVSKQLVEHVLIDKKSQDNITVLLLKISRKEGHHHHHH”, the “soluble on expression in E. coli” value is “soluble”.

Consider “QVQLLESGPELVEPGASVKVSCKASAYSITDFNIYWVKQSHGKNLEWIGGIDPHNGGPVYNQKFNGKATLTVDKSSSTAFMHLNSLTSEDSAVYYCAIFYGNFFDYWGPGTTVTVSSASTKGPSVFPLAPSSKSTSGGTAALGCLVKDYFPEPVTVSWNSGALTSGVHTFPAVLQSSGLYSLSSVVTVPSSSLGTQTYICNVNHKPSNTKVDKKVEPKSCDKTHT”, for which the “soluble on expression in E. coli” value is given as “soluble”.

With “MWAVIRMRTFRRSTRNAVSRMRKPKPRASAKQRSLERHFGSRQPTKNKFLNAIYWGIRRCQYFLCCYDDEVEDELEDASANPFNTQPPGLDQLVQLTGFNRKWIMFMYRNFKQKCSNGRMTDSQWRILFRSIFPQANDSAFIDRLYAAIVKKKQHPQITFEDLILCLWELSEDGKTSEMGNYHINSSARAQFAFQLMDEEGKGRVDEPGFYKYTRCVFALTAVNKPCTDQIIDASTIGLPASSIYRSTSVDDVLKPMSPLIARFSSKRFKELDTDRDGFITVRDIERELEIQKNEAICLKSLKDFSFEDLKNEEDDDDEDDQDTNPLLSESSSFKKDV”, the “soluble on expression in E. coli” value was “not soluble”.

As for “MGSDKIHHHHHHMSRQEQTPLFSGVVAHAKHNPVQFHIPGHKKGAGMDPAFRSFIGDNALSIDLINIGPLDDLHHPHGIIKEAQELAAEAFGADHTFFSVQGTSGAIMTMIMSVVGPGEKIIVPRNVHKSIMSAIVFSGATPVFIHPEIDPLLGISHGITIEAVEKALDAHPDAKGLLVINPTYFGIAANLKKIVELCHSRDVPVLVDEAHGVHIHFHEALPLSAMQAGADMAATSVHKLGGSLTQSSILNVREGLVSAKRVQTIISMLTTTSTSYLLLASLDAARKHLATNGRDLIGYTIQLADQARDQINAIDGLYCVGKEILGTIATYDYDPTKLIISVKNLGITGYDAEVWLREHYQIEVELSDLYNILCIVSFGDTEREMDLLVKALSELADLHKHGICERSPVSVYVPNIPTLAMSPRDAFYAETEVVPFEDSVGRTIAEFIMVYPPGIPILIPGEIITESNLAYIRENNRAGLPVQGPEDDTFRTLRVIKEHEAIR”, the “soluble on expression in E. coli” value is reported as “not soluble”.

On to “MLLNEASDAIYWVNHKGLITYANPSAQILFGYEEVELKDKSISDLIVSKTDLFSTFSSNIIEEKGVVIQQEFVRKDNSTFYGEMSVRLFDDGSHQAIIRDITKGVIEQRLLLDRERKFKILVENAFDIIIVLSSDFKIKFISPAIKKMLGYEIDSVLGENSNKFIEFRDRVMIKEVLKNHGITYAINDLKLIHKNGQIIHCEVNAVNFLNDPLINGIIVNCHDISKRIQTENELINTNYELDSFVYKVSHDLKAPLRSMLGLINLSQKENTEDTVKLYLDMMVRSIHNMDIFIKDLTQFSRNSRMEVIKESIDFKELITKIENNLKYDDNARFISFERNISQQSLFYSDPNRVETIVSNLLSNAYKYHRFDSNNPYINVKIEVSETAACIVIKDNGSGIADEYHNKIFQMFFRASEKSQGSGLGLYIVKSAIDKLEGTITLHSIPDKESTFTVEIPNLLTR”, for which the “soluble on expression in E. coli” value is given as “not soluble”.

Turning to “MSTPTVITLNDGREIQATDKPSYDEDSGFYEFEQLDGKRTRLNKDQIRTVKELLEHHHHHH”, the “soluble on expression in E. coli” value is reported as “not soluble”.

For the sequence “MGRFRRVLTTAVLTTLLVGGTAGWASASSASVPGGPLPGTAAWLADDFLGRELPDPGTATPAEVAAFFAGLSDVQRHRLAEDHPAVVGNLDGVPVHLRYEANAPAGDRVLAYDPRGRGTIARVAGDLENAAHVSVIVPGSDIDAETFDRTAQRAADLQAAAGDDTAVIAWAGYTTPSGIGPDLATGRLAEAGAERLARLTEGLDAAGLPDPSLFCHSYGSVVCGLAADDTDARDIVVMGSPGMRADDVGALGTDAHVWAAKSPDDWIDRVPNVEFLGLGHGADPTSPGFGATVLPADDVPAHDEYFTPGTSTLAAFAAIADGERPLEHHHHHH”, the “soluble on expression in E. coli” value is on record as “not soluble”.

As to “MGSSTSTPAPPPKKNKPEGRKADNQILNSYQKSIVRNAWRHMSQKGPSNCGSTITRRMMARKSTIGDILDRSTLDYHNLQIVEFLQKVMQSLDEPDKISKLCQEIGQKHAKYRRSKGMKIDYWDKLGEAITETIREYQGWKIHRESLRAATVLVSYVVDQLRFGYSRGLHVQGSRETKEDDEE”, the “soluble on expression in E. coli” value is recorded as “not soluble”.

As to “MIASIFGKITFVGKRKIIVEANCISYWFNVKENHSFEKNLEKPRQVFCQIIKRMVTNQILEEGFA”, the “soluble on expression in E. coli” value is on record as “not soluble”.

Turning to “MGSDKIHHHHHHMSTLENVHASPIHFMSKPAEIEHTQRPLNEASHAPGYIYGDPDVLRREKERIFMKDWLCIAHVDELPNPGDFVTHTVIDEPVLIVRNRSGVLQAFYNQCRHRGVEVAEGRGNAKIFKCPYHAWSYDLDGKLIGVPFMKEAQGFDQKNCSLKPVRLDTWGGFIHISFDPDAEPLSSYMAEYEQEFGMLRQGELRLGLRWETDFDCNWKFVYENLMDIYHVGVTHADTIGRYQDQSSYRYLQLPRGRASIHYRAKTMSETGSSLFGRLPWIDDDSFARIGYLPPNLTMLARCDYVRPVTHWPTAVNRTHSVAYFLFPEDKIADPQFQEKIQTYVKFVEQVLDEDRGMILSLQRAMNTRGFEPGRMSFMENAIHHALGYHLERLFGPQSA”, the “soluble on expression in E. coli” value was “not soluble”.

As for “MGHHHHHHSHMANSMANSMIRNKVMEQSFIEYSLGKDASSAVLWVYPARKPRGKAIIMCPGGGFNQIASDHEGRDFAAWFNNQGITYAVLNYRMPHGDVEVIREDIREAIRLIRRQSAEWGIHQLGVMGASIGGYIAATAATLYTGTDRPDFQVLLYPVISMTDRLTHWPSRERMLGETISEGLKETLSLELHVTADTPPTFIVLAEDDQAVSPLNSIVYYTALLKHGVSAGLHIYPEGGHSFGFRDSFIYKELWTDELQKWLLTF”, the “soluble on expression in E. coli” value was “soluble”.

On to “MSGTNRVAANLNMLFTNLPLLQRYGAAASAGFKLVEVSIPYTEPAEKLREAADEYHLKHTLINAPPGNWDDGFRGLASLKSAKKEFRKSLDTAIEYAKALGCCRVHVMAGIPKSDDDLENAHQTYSENVRFAAEKFKEHKLICLIEPINKYTIPGYHLNNYEDAMDVIQMDQSNNLKIQYDTFHAQQINGQIGAIMRKLKDYIGYIQVAQVPNRGACDTRGEIDYHFIFDEIRSINPSWVIGAEYLDAKPSFNWIENMSLSF”, for which the “soluble on expression in E. coli” value is reported as “not soluble”.

Regarding “KRETDNGHDVFESFEQMEKTAFVIPSAYGYDIKGYHVAPHDTPNTIIICHGVTMNVLNSLKYMHLFLDLGWNVLIYDHRRHGQSGGKTTSYGFYEKDDLNKVVSLLKNKTNHRGLIGIHGESMGAVTALLYAGAHCSDGADFYIADCPFACFDEQLAYRLRAEYRLPSWPLLPIADFFLKLRGGYRAREVSPLAVIDKIEKPVLFIHSKDDDYIPVSSTERLYEKKRGPKALYIAENGEHAMSYTKNRHTYRKTVQEFLDNMNDSTE”, the “soluble on expression in E. coli” value is reported as “not soluble”.

Take “MRRGGSMGPPSGDPYQSRPSPGGYYYNRSTPGGQPAPSPSHSQQSASSHHPRGVPMSQPIARRSDYRTGSEQMTPRSDHRGPSMGYGNGGSVDQRVDDVTPSYYVEHLATFAVGRQFGLTFPADGIRKLKQMEKNSAIWAQPLILRFRHNAVTVEDDNGELVEQFPLELIEQPTAHVSNDSRETYNNVLLFVVREDRKRMSTPTEMHIFQCIRVSATDVAEDLKNYVQGQFRRVRNGRRTAAPTHLQAQQQQMPFYPPDDASISSETSEMFERDVNTLNRCFDDIERFVARIQSAALAQREIEQQNHRYRTANRRDKKNQQPPDPNGILFMRAQLPLESEFVDILKKFKLSFNLLAKLKNHIHEPNAPELLHFLFTPLAVILEACHWGLGRNVAPTVASPLLSLEARELMQNCLTSHESDIWMSLGEAWRTPPEDWTKPLPPPYRPIFNDGFAPYGVADRAMATPNQIHRGHSAPPEHFRQPPPRERNMVDTLEFDRLTLERERLEFEKAKIMERESRLRHEEKQIEDEKRRMHAEKDLITKETTQPVPPPAAVVTHQPITKRYDPPISISPPPQRNNYSHVKVTVDSDTSPRQQAFIDDIVAKGGKLAVVTYDRGGQNTKELTVHKGEYLEVIFDERNWWECKNMHQRVGYVPHTILSMVPFEQQQYAQQYNVMSSQHNVIQINDGVGKMEVFISKTCNFILITTCNLFCSTTKTAVPDIYRAFVMNDETRQMSGTPCENSRSFLSSNTLSSSPENAPEIPLLENLKFNHNKLYLFHILSPNHHNNSSSTGGYNNGHHQGPGMLPEDAPSYVKERQAQNVYRPPPPPLVSDAGVQVEIRREHVAPPPPPVVIPPPPPPVRTPTMEELLRMQQQQQQKQRKPPVEEPVYQPQPAQRAGLEIWRRNQNPQLIQEVTETVGQHSGDILRPAMQRATRVAINEKSSPEDVTRWLQEKGFSPRVIDLLDGQDGANLFSLSKLHLQQACGRDEGGYLYSQLLVQKKRSGFRTHTGDELKAILNHRRTHVELSNEAAADEPVFTINPIL”: the “soluble on expression in E. coli” value was “not soluble”.
